Experiment: soluble on expression in E. coli; label from the status in PepcDB or PDB records

| Sequence | soluble on expression in E. coli |
| --- | --- |
| MGSDKIHHHHHHDSDIDPVYVLSGDSMELMGGPNEVILTPDNPQALALTVYWSGDGRLALSDTLLQAPVNVAEITIQFSKDEHFTAPLNIAVDKNIHSRQFLCEELNSLLDRLGYEANEKAPLWIRMRSALAANIAPEYSNVMEVLVQSYRIELVLAQVLDKDWKNTSMTLASPAEDGIYKGFMGVNGWENWWLREANNVMWGNLGEEGKTFYASSEDSHWNFWFPNPSGCYYTTVNTVEGWWSALHVASLSVSGDVTGEMAYNKQSNQWTLPVNLATQSTLTISVSGKGSLYNRETTDIGPAIEQTVAFGGNSQNLLFGESADNISVTMPAGENLLVLDLSNPLQFTIGIGEDVPQPEVSQYLYFSGITNWEGFDDYLTLYDEAGLCYGGAHWIDSEWGYRAYTEQAWEPAYNAADGSTDLSGTLILAESKDNIPAPAQGLYVMDFNMKSLTYELTQVQTVTFTGLNDNWSESPMTQSAENPEIFTAEFIKEKKSPWGVKVLINNNWNLFFGGGSGILHLKHSESSAGFDGDDELEIGKTYVLTVDLGHQTYSYSLK | not soluble |
| MGSDKIHHHHHHEDFLQKDPPSSPSQSVFWQKKSDFESALAGTYSVMYSGVFSQIMPCLDGLTDNAIVQHSEGTYGWAKTIAQGDLTPNQGGFVTDIYGNCYKGIARVHILMEQLDQYTGSDISADEKKFMLAQCKALRGYFYSWLYQCYKEVPVVTQSLDLNTMYQPKATRAEVLNRVMTDYDEAISELPDKLYSDSQTSGRFTVSAVKALKARILLFDAYDSNGKAISSKMEEVLTLLQSIKGYSLAARVRDNFISEKQLASPEIMFSVRFLRPNLTHSMDLYYGAWAVLDPTRNMVDAFECTDGKPWGESPLTVRPDESILYGNDDALKKAERAKMFMNRDRRLYESVNHSMMANFVDDGFKDEEVQVNESNNKGPTGFSALKYVQPTDVTPGYSTVSDADIVVLRYAHVLLMIAEAENEAHGATTTALNAINEVRTRSGQPAIEAGISQDDLRERIRNEWRIETCFEGLRYFQLKRWKLMDKRVNGVEDPAYPGYIKVYKPAFEFFPIPQSEIDKAGGVLKQDPAYE | not soluble |
| MGSDKIHHHHHHEEPVGEFLPGQVESEENIEGIVTGAYAVLDGYYASDAINSGCSNWQFGDVVSDDAYKGGGGTGDQNQIHLMEIFNANPTGIDFEARWAALYEGIKRCNQAIRLLNGSEVKNKEQRLAEMRFLRGHYYFNLKIIYNQIPWIDETLVDPNEYNKKSNIEFSSDQLWEKILEEFSAAYKVLPESQADYGRPTKMAARAYMAKVYLYQSKWKECLEACDEVIQSGKYELFPDFRNVFLPENDNCSEIIFAIQLSINDGSPNNENGSYGDRLLPPGGPYPVYGFLRPTQNLVNAYKTDVKGLPYNDGKDVSENDYVDVRLDHTLARPNIPFMDVQLYDWTPREASVYGPYSPKKRLVSLNSTYYSPIWPYVNALNFYVIRYADLLLWRAEAAIETGDLETGRKYINMIRERAKNTQHVKTMDQSQDAANYKVGVYDEPFKSKNEAVQALRMERRLEMAHEGIRFFDLVRWGVADEVINAYIAKEKVFRSHLQNAHFVKGKHEYFPIPQSMIDICGTEVMKQNPGY | not soluble |
| MGSDKIHHHHHHEEQKVCHMDDECVEVGQWQLGLALGYGERSNPVRDYDDIPIYLAPTLAYYGDRWFFDNGNLGYTLADEELFSVNLTTSFSSDSAYFYRWDPSNIFISGTSQLSSTPSAFTSRFQAFGAEPEPVFNELEDRKFTLLGGAEAFIYTPMGIINLALAHDLFDVHSGMEAKVKWLYNLSWTDWKFEFAAVANWKSEEIINYYYGVRPSENTYWSERYRAGSGTNLGLELTTQYIMSEHWELLFLVRYTDLADEITASPLVTESYTNTYFIGTAYRF | not soluble |
| MGSDKIHHHHHHEGNATTTSYFLNDQQAIDAIDGLYERFHQEGCYGRELFWEQGAACDIVWGRTRGYNSLATLAYTGDESPLRDVFSRMYSTMSRANWIIQELVKKEKGTTLTAVEKRSLGEAYFSRGWAHYLIAYRYGTDKQGVPFVRYEDFPDDYDNSIPPQQATVMDNYKLIIEDMDKAIAYLPIFESYDADNRGRAHQAAAVAFKAKTYAYWATWDATQWNNVIEMVNQLENNYNRDLAPTFAELFSSDLKDYWNAEYLWTIPSIGGALPGGTEFPGIILENKGWGKYNGWGQMKPSYDIYEEMAKDGKGNDRLVRSILEYNQEFPFFGETRKFWSTSDLEAGFMINKYMDAFKYSDPVGEGAVSANGDWPTVRVNFPIIRFAEMLLFRAEAYLMTGQADKATADINRIRLRSNLTPLTGTATMKDLYHERRCELAFEFTDHLFDLKRWNRSSNADIKTLADKELNAHPRIRRYEDRANPESAFTIIGYEDYTNKNAYQAHMMVFPYPSEEITKSNGQLKQNEGY | not soluble |
| MGSDKIHHHHHHFDGFGAVSGGGATSKLLFTYFSEKSDRKQVLESLFNKDNGLQLLKVEMGGDDQSTEGTESSHESEKGKISKNNYEFQLISEVREINPTIPICVLPWAFPGWIGNTPYDNVTETAEYVVNWLKIGRDTWNFDTFCVGVWNERNFSESYVKELRKILNLNGFNETLIVAGEGFRMDDSYSRLLDKRFINEYDIIG | not soluble |
| MGSDKIHHHHHHGADFVKGDRTFAADAELGATVTTGNTETTSLKGRLDMKHELGNWENQYLLEALYKEDSGEETGKRYYGLVQGNYKFSDVNYMFANANHEIDPFTGFDSKSTISAGYGHKFVDTEKTTFAVEVGPGFQYKRLDDESAAEAGYDTEESWVAHGVMNFETEITDNSKFKQLFVADYGESLEGRSETSITANIVGALAMKFAVIVRYNSEPLDNKKSTDTETNMTLLYSF | not soluble |
| MGSDKIHHHHHHGQYIKKETVNSQVYAVIYAEGLAGSAQWVSGFKMMKNDATIRHQVSRGNGGNPIVNDRIPMRFIIAPTDVANVTWMQAEGAGDGNGNLNADFRSTAATGCRSYKIAGDPNRKWRVPTQRELQLMWLFREPVGVIYPAAQMENVSSKIYWAATEEDAANAWYFDFKQGVPQCSWQLKTTSSNVRCVSDY | not soluble |
| MGSDKIHHHHHHHILNKKSYKNGYDNISDTDSVYFNGVEKYARFADFPVQINIMQKFDYTLDQLMLRDDYEISLEEWSSILFQIIFALAVAQKEYSFAHNDIHSDNVMFSNTKEPYIYYHINDTIYKVPTFNRVAKLIDFARGTFKVDGKWYISDVFENGGEADGQYEYDLNDFKPNHSFDLARLASSIIDNVNVPEIEDILRTWIKTTSGYDVMEDKDTFDIYIKIAKECFNAVPTKVIKHKLFQQFKITKKQKPNNTYVYYY | not soluble |
| MGSDKIHHHHHHKDDDNVETGAFDPSKPVAISDFTPKEGGAYQKLLIYGENFGTDVSKVKVKIGGKDAIVINVKSTYVYCFVPSGAFSGEIEITVGEGENAVTTTASTTFSYEKKMVVGTLCGYRNNRDDQGWRDGPFDGPEGVKCCGFSDNGRLAFDPLNKDHLYICYDGHKAIQLIDLKNRMLSSPLNINTIPTNRIRSIAFNKKIEGYADEAEYMIVAIDYDGKGDESPSVYIIKRNADGTFDDRSDIQLIAAYKQCNGATIHPINGELYFNSYEKGQVFRLDLVDYFKTIKNGGSWDPIVKNNPNTFKQLFTIADPSWEFQIFIHPTGKYAYFGVINNHYFMRSDYDEIKKEFITPYNFVGGYKQSGYRDDVGTEARMNNPCQGVFVKNPDYTGEEEYDFYFVDRLNFCVRKVTPEGIVSTYAGRGASTSLADGNQWGTDDGDLREVARFRDVSGLVYDDVKEMFYVHDQVGHTIRTISMEQEENVAGDENIPEDESTVESNE | not soluble |
| MGSDKIHHHHHHKITQDDLKQLDGNLTPLGAERAANKDGTIPAWTGKWLGAPTGVAYKAGERYQDPYADEKPLYVITAQNMAQYDKQLTDGLKALFKKYPETFKMPIYATHRDFRYDDGTYKAIRTYAPQIEMLGEGNGVKNSPPTLPYPIPKTGLELLWNLRFASAIESERAVYDQAVVYADGKVAWGKVKYEIWSPKDGQHFDAKAPMNARAFYRMYTELPLRDRGSIITGYTVYDSPEPDSNRAWSYNPGTRRVRQAPEYGYDQPFGPGGFRTVDDDHFFNGSPERYDWKIVGKRELYVPYNNYRMSSPSIKYQDLLTKGHADPSNMRYELHRVWVLEATLKQGFRHQYAKRIIYIDEDSWYGVLADNYDSRGQLWRTNIQANVYAYDAKRFYPTAVFFHDLISGAYLADRLTNEGQPPRLNSEPKYVEAYFSPDAARGAGN | not soluble |
| MGSDKIHHHHHHKSTFKQELAVGASFGLNFSSVSFAPKVPTKMKLGFNGGATIRWNTEPNLGIQAELNFTQHGWEEKFEEKPQYKYSRTVNYMELPFLTHIHFGSKRVRVFVNLGPKIGYALSESTESNLNGENPNANRPDEQHTLEVQKKFDWGLCGGPGIELRTGIGSFLLEGRYYYALGDMFNSRKGDTFSKSSSQIISAKLTYLIPIFSK | not soluble |

Source: the DeepSol protein solubility set
